Assay results taken from publication PMC8891188 (Clinical Pharmacokinetics, 2021).
Read-outs that look alike come from different tables or passages of the source.

Experiments:
[1] = 10 U SC; Howey et al.; cited from earlier work
[2] = cited from earlier work
[3] = simulation of the previous study by Rüppel et al.; cited from earlier work
[4] = Serum insulin pharmacokinetics during euglycemic clamp; format: in vivo, human
[5] = tested on: persons with type 1 diabetes mellitus; assay: Euglycemic clamp pharmacodynamics; format: in vivo, human
[6] = across doses, TI inhaled, LIS SC
[7] = mean (SD) of n = 5 PK profiles selected for comparable AUClast, SD

Substance | MRT [1] [h] | Time to maximum concentration (Cmax) of insulin ([2]; IV, after the start of administration) [min] | Time to maximum concentration (Cmax) of insulin ([2]; SC, after administration) [min] | ED50, Emax model of predicted GIR AUC vs D [3] [U] | Insulin exposure estimated from the linear regression equations ([4]; 10-U dose of LIS SC, regression equations in the ESM) [min µU/mL] | Geometric mean dose-normalized insulin exposure (AUClast/D) across doses [4, 6] [min·µU/mL/U] | Estimated MRT at the same insulin exposure ([4]; insulin exposure of 8152 min µU/mL, regression equations) [h] | AUClast of profiles at the high end of the common exposure range [4, 7] | AUClast of profiles at the low end of the common exposure range [4, 7] | Geometric mean dose-normalized effect, GIR AUC/D [5, 6] [mg/kg/U] | γ, model of GIRmax vs Cmax (common value) ([5]; common to TI and LIS, estimate (standard error), SEM) | Total effect (GIR AUC) at comparable low insulin exposure ([5]; n = 5 profiles per treatment, AUClast about 6537 min∙µU/mL) [mg/kg] | Exponent of dose dependence of tGIRend (tGIRend ~ D^x) ([5]; power-law fit, log-transformed variables)
RHI: regular human insulin, given intravenously or subcutaneously in cited studies | 3.92 | 5 | 121 | 48 |  |  |  |  |  |  |  |  | 
[Lys(B28), Pro(B29)]-human insulin [LIS] | 1.68 |  |  |  | 8152 | 883 | 1.97 | 61,371 (9082) min∙µU/mL | 6538 (65) min∙µU/mL | 66.2 | 1.37 (0.19) | 899 | ~0.282
